The values below come from article PMC11784139.

pKd: −log10 of the molar value.

For data set [1], the target named is 6 × His-tagged APR1 (AlmA Positive Regulator) (Acinetobacter venetianus RAG-1). Description: cross-linking; 0.1% glutaraldehyde added to 5 µg purified 6 × His-tagged APR1 in 50 mM Tris-HCl (pH 8.0), 10% glycerol; 0.5–1 h at 30°C; analysed by SDS-PAGE.
The subject of data set [2] is T1, 6xHis-APR1 (Acinetobacter venetianus RAG-1), ORF:d17a4b85.
T1 sequence: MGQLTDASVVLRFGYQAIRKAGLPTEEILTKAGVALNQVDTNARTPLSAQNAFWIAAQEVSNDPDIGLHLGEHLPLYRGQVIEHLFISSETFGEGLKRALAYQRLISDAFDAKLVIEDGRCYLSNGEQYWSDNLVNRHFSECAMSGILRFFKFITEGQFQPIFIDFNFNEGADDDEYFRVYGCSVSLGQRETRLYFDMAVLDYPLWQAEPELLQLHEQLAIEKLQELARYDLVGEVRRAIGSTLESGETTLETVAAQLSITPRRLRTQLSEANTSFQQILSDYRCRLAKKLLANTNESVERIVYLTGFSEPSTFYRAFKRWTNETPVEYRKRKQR
Description: EMSA. To be noted: EMSA: 5 mM Tris-HCl pH 7.5, 0.1 mM EDTA, 5 mM MgCl2, 10 mM KCl, 0.2 mM DTT, 30 C, 30 min, native PAGE in 0.5x TBE; MST: 50 mM PBS pH 7.2-7.4, temperature not ….

Data set [3] concerns 6xHis-APR1 (Acinetobacter venetianus RAG-1). Description: MST. Particulars: EMSA: 5 mM Tris-HCl pH 7.5, 0.1 mM EDTA, 5 mM MgCl2, 10 mM KCl, 0.2 mM DTT, 30 C, 30 min, native PAGE in 0.5x TBE; MST: 50 mM PBS pH 7.2-7.4, temperature not ….

In the case of “6 × His-tagged APR1 (AlmA Positive Regulator) (natural protein)”, the stoichiometry N in data set [1] is 2. As for “AGCCTACCTGATGATCAAATTGGAAAGGCGCAAATTATAGTCAATTTATTTGAAATTTACAAGACGCTCTCTTAGCAAAGCTTGTACAGATGAATTGGAAAAAACTGTCAGACAATCCTCATTTTTTTTTAACAAAAGAAGCAGAATAGTGTTGTCAGTTTGGTCAATCAACGTTAATCTAAAATTATTGTTTATTGTCACAATAACGTATCTACAGGGAAGGGCACTGC (double strand) [apR1 promoter]”, the binding result in data set [2] is “binds”.

In the case of almA promoter, the pKd in data set [3] is 7.01.
